Test results from publication PMC3084279, “Critical Factors Governing the Difference in Antizyme-Binding Affinities between Human Ornithine Decarboxylase and Antizyme Inhibitor” (PLoS ONE, 2011).
Values belong to the molecule of their own block, whether it stands above or below them.

What was measured:
[1] = biological target: human antizyme (human) (UniProt P54368)
[2] = biological target: human ornithine decarboxylase F133C mutant (human) (UniProt P11926)
[3] = biological target: human ornithine decarboxylase M140K mutant (human) (UniProt P11926)
[4] = biological target: human ornithine decarboxylase N125K mutant (human) (UniProt P11926)
[5] = biological target: human ornithine decarboxylase N125K/M140K double mutant (human) (UniProt P11926)
[6] = biological target: human ornithine decarboxylase N126V mutant (human) (UniProt P11926)
[7] = biological target: human ornithine decarboxylase S135N mutant (human) (UniProt P11926)
[8] = biological target: human ornithine decarboxylase, wild type (human) (UniProt P11926)
[9] = biological target: human ornithine decarboxylase N125K/M140K double mutant (human) (UniProt P11926); remark: listed apart in the source
[10] = biological target: human antizyme inhibitor K125N mutant (human) (UniProt O14977); test: AUC; sedimentation velocity, 42,000 rpm; ODC or AZI fixed at 0.3 mg/mL with AZ at 0.015, 0.03, 0.06 or 0.09 mg/mL; data globally fitted with SEDPHAT to the A+B<->AB hetero-association model
[11] = biological target: human antizyme inhibitor K125N/K140M double mutant (human) (UniProt O14977); test: as above
[12] = biological target: human antizyme inhibitor K140M mutant (human) (UniProt O14977); test: as above
[13] = biological target: human antizyme inhibitor, wild type (human) (UniProt O14977); test: as above
[14] = biological target: human ornithine decarboxylase M140K mutant (human) (UniProt P11926); test: as above
[15] = biological target: human ornithine decarboxylase N125K mutant (human) (UniProt P11926); test: as above
[16] = biological target: human ornithine decarboxylase N125K/M140K double mutant (human) (UniProt P11926); test: as above
[17] = biological target: human ornithine decarboxylase, wild type (human) (UniProt P11926); test: as above
[18] = biological target: the molecule itself; test: AUC; sedimentation velocity, 42,000 rpm; continuous size distribution (SEDFIT) of ODC or AZI without AZ

Sequence of human antizyme inhibitor, wild type (human) (O14977 whole entry): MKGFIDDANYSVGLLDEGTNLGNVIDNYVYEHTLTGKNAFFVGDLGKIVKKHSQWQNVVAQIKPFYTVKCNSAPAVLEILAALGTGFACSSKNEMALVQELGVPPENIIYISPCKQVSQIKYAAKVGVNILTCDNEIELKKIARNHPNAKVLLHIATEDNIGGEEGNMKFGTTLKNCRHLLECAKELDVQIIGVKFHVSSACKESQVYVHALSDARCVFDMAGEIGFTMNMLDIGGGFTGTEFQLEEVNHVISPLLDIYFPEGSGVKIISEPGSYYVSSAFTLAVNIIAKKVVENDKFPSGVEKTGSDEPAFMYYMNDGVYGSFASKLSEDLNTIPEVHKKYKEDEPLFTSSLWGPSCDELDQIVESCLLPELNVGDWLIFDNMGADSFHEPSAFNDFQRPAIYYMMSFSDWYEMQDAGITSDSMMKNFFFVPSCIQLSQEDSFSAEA
Sequence of human antizyme inhibitor K140M mutant (human) (O14977 whole entry K140M): as the sequence (O14977 whole entry) above, with K140M counted along it
Sequence of human antizyme inhibitor K125N mutant (human) (O14977 whole entry K125N): as the sequence (O14977 whole entry) above, with K125N counted along it
Sequence of human antizyme inhibitor K125N/K140M double mutant (human) (O14977 whole entry K125N/K140M): as the sequence (O14977 whole entry) above, with K125N, K140M counted along it

residual enzyme activity of AZ-inhibited ODC WT (AZ:ODC monomer ratio 4.0) with increasing AZI concentrations [1]: > 90%
Molecule: human antizyme inhibitor, wild type (from UniProt O14977 1-448) (natural protein)

IC50,AZ: concentration of AZ required for 50% inhibition of ODC enzyme activity (ODC 20 µg/mL) [2]: 450 nM | IC50,AZ: concentration of AZ required for 50% inhibition of ODC enzyme activity (ODC 20 µg/mL) [3]: 130 nM | IC50,AZ: concentration of AZ required for 50% inhibition of ODC enzyme activity (ODC 20 µg/mL) [4]: 100 nM | IC50,AZ: concentration of AZ required for 50% inhibition of ODC enzyme activity (ODC 20 µg/mL) [5]: 80 nM | IC50,AZ: concentration of AZ required for 50% inhibition of ODC enzyme activity (ODC 20 µg/mL) [6]: 440 nM | IC50,AZ: concentration of AZ required for 50% inhibition of ODC enzyme activity (ODC 20 µg/mL) [7]: 490 nM | IC50,AZ: concentration of AZ required for 50% inhibition of ODC enzyme activity (ODC 20 µg/mL) [8]: 250 nM | residual enzyme activity of AZ-inhibited ODC N125K/M140K on rescue by high concentrations of AZI (AZ:ODC monomer ratio 4.0) [9]: 20% | Kd [10]: 160 nM | Kd [11]: 180 nM | Kd [12]: 110 nM | Kd [13]: 20 nM | Kd [14]: 140 nM | Kd [15]: 100 nM | Kd [16]: 20 nM | Kd [17]: 210 nM
Molecule: human antizyme (from UniProt P54368 1-228) (natural protein)

B1: human ornithine decarboxylase, wild type (enzyme, UniProt P11926 1-461, looked up)
chain: MNNFGNEEFDCHFLDEGFTAKDILDQKINEVSSSDDKDAFYVADLGDILKKHLRWLKALPRVTPFYAVKCNDSKAIVKTLAATGTGFDCASKTEIQLVQSLGVPPERIIYANPCKQVSQIKYAANNGVQMMTFDSEVELMKVARAHPKAKLVLRIATDDSKAVCRLSVKFGATLRTSRLLLERAKELNIDVVGVSFHVGSGCTDPETFVQAISDARCVFDMGAEVGFSMYLLDIGGGFPGSEDVKLKFEEITGVINPALDKYFPSDSGVRIIAEPGRYYVASAFTLAVNIIAKKIVLKEQTGSDDEDESSEQTFMYYVNDGVYGSFNCILYDHAHVKPLLQKRPKPDEKYYSSSIWGPTCDGLDRIVERCDLPEMHVGDWMLFENMGAYTVAAASTFNGFQRPTIYYVMSGPAWQLMQQFQNPDFPPEVEEQDASTLPVSCAWESGMKRHRAACASASINV
notes: Ornithine decarboxylase (EC 4.1.1.17), human; Homodimer without AZ (S about 6); dissociates to form a heterodimer with AZ; Gene sub-cloned into pQE30; also called ODC; source: E. coli JM109, purified (Ni-NTA Sepharose)
stoichiometry N [18]: 2
